The values below come from publication PMC7660301, “Phe-140 Determines the Catalytic Efficiency of Arylacetonitrilase from Alcaligenes faecalis” (International Journal of Molecular Sciences, 2020).

As a reminder, the Km is the concentration of substrate that gives half-maximal velocity. The kcat is the maximal rate divided by the concentration of active sites. The kcat/Km is the second-order rate constant that governs catalysis at low substrate concentration.

Data set [1] deals with N#CCc1ccccc1. Description: ammonia release, Michaelis-Menten. The note with it: 50 mM buffer pH 7.5, 10% methanol, 30 °C, 0.5-30 mM substrate. The class given is biochemical, Alcaligenes faecalis. An excerpt: (§1) ammonia release, Michaelis-Menten on Arylacetonitrilase from Alcaligenes faecalis (NitAF)
For data set [2], the target named is T1, Arylacetonitrilase from Alcaligenes faecalis (NitAF) (Alcaligenes faecalis, UniProt P20960).
T1 construct: full-length with C-terminal His6 tag (tag kept), vector pTrc99A-derived, E. coli BL21(DE3), Ni-NTA; 1071 bp, 357 amino acids printed; subunit about 32 kDa by SDS-PAGE, native about 460 kDa (homo-oligomer)
T1 sequence (P20960 whole entry): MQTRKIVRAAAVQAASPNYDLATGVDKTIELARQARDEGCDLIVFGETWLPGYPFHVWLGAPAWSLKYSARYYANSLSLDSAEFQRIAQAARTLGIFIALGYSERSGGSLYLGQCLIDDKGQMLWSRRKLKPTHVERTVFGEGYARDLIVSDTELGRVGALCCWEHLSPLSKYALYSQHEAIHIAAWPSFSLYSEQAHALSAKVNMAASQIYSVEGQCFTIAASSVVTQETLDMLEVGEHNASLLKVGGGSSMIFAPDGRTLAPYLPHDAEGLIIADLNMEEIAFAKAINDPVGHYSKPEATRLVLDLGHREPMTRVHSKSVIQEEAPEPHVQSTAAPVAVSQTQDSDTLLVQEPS
Description: ammonia release, Michaelis-Menten. In kind it is biochemical. The note with it: 50 mM buffer pH 7.5, 10% methanol, 30 °C, 0.5-30 mM substrate.
Source text: as §1

In the case of “Arylacetonitrilase from Alcaligenes faecalis (NitAF) (Alcaligenes faecalis; F140L)”, in data set [1], the Michaelis constant (Km) is 2130 ± 210 µM, the kcat was determined as 38.8 ± 3.8 s⁻¹ and the kcat/Km came to 18200 M⁻¹ s⁻¹.
For “Arylacetonitrilase from Alcaligenes faecalis (NitAF) (Alcaligenes faecalis; F140H)”, in data set [1], the Km is 890 ± 100 µM, the turnover number (kcat) amounted to 63.5 ± 4.7 s⁻¹ and the kcat/Km stood at 71400 M⁻¹ s⁻¹.
As to “Arylacetonitrilase from Alcaligenes faecalis (NitAF) (Alcaligenes faecalis; F140G)”, in data set [1], the Michaelis-Menten constant (Km) stood at 24100 ± 2200 µM.
Turning to “Arylacetonitrilase from Alcaligenes faecalis (NitAF) (Alcaligenes faecalis; F140V)”, in data set [1], the Km amounted to 2950 ± 320 µM, the catalytic constant (kcat) amounted to 25 ± 2.4 s⁻¹ and the kcat/Km turned out to be 8480 M⁻¹ s⁻¹.
For “Arylacetonitrilase from Alcaligenes faecalis (NitAF) (Alcaligenes faecalis; F140A)”, in that order: 4200 ± 410 µM, 15.6 ± 1.2 s⁻¹ and 3710 M⁻¹ s⁻¹.
In the case of `N#CCc1ccccc1` [phenylacetonitrile], the Michaelis constant (Km) in data set [2] was determined as 860 ± 70 µM.
Regarding “Arylacetonitrilase from Alcaligenes faecalis (NitAF) (Alcaligenes faecalis; F140W)”, in data set [1], the Km turned out to be 1450 ± 120 µM, the turnover number (kcat) was 143 ± 12 s⁻¹ and the kcat/Km was determined as 98600 M⁻¹ s⁻¹.
